Laboratory results from paper PMC5383425, “Differential CLE peptide perception by plant receptors implicated from structural and functional analyses of TDIF-TDR interactions” (PLoS ONE, 2017).
Residue numbers refer to the chain shown, from its start. Square brackets hold non-standard residues; d marks the D form. Ends that are not written are not given here. Hyp = O=C(O)[C@@H]1C[C@@H](O)CN1

Assays:
Assay in all cases: ITC; 0.5–1 mM peptide titrated into 10–40 μM ecdTDR; 25°C; 10 mM sodium citrate, 100 mM NaCl, pH 5.5; fitted to one set of binding sites; MicroCal Auto-iTC200
Conditions in all cases: both partners purified
[1] = target: T1, ecdTDR mutant with all five N-terminal anchoring site-binding residues replaced by alanine (Arabidopsis thaliana, UniProt Q9FII5 30-642)
T1 chain: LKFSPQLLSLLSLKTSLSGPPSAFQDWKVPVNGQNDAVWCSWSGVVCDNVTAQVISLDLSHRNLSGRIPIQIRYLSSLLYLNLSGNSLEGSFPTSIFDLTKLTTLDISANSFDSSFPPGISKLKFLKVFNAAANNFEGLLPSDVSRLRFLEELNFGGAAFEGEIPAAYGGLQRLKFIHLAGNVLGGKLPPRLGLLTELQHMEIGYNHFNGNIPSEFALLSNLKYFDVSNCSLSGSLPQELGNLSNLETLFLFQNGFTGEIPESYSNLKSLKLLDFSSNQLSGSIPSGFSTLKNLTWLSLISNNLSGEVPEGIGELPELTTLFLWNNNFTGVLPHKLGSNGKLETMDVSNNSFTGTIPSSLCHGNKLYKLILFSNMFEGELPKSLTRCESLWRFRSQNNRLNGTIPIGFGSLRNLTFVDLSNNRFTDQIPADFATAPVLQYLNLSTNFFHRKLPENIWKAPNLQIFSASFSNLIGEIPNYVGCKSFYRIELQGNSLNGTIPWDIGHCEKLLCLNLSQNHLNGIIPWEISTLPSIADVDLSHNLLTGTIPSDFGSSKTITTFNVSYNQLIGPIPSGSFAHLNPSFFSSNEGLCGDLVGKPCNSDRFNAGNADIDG

[2] = target: T2, ecdTDR Y253 alanine mutant (Arabidopsis thaliana, UniProt Q9FII5 30-642, alanine substitution of Y253)
T2 construct: TDR/PXY of A. thaliana, extracellular domain, residues 30-642; The text says only 'mutational studies' of Y253; source: High Five insect cells (baculovirus), secreted, purified as the wild type (Ni-NTA, size-exclusion chromatography)
T2 sequence (looked up): T1 chain with A109R, A132F, A133S, A158S, A159Y, Y224A

[3] = target: T3, ecdTDR Y234 alanine mutant (Arabidopsis thaliana, UniProt Q9FII5 30-642, alanine substitution of Y234)
T3 construct: TDR/PXY of A. thaliana, extracellular domain, residues 30-642; The text says only 'mutational analyses' of Y234; source: High Five insect cells (baculovirus), secreted, purified as the wild type (Ni-NTA, size-exclusion chromatography)
T3 sequence (looked up): T1 chain with A109R, A132F, A133S, A158S, A159Y, Y205A

B1: Tracheary Element Differentiation Inhibitory Factor (TDIF) peptide (peptide)
peptide: HEV[Hyp]SG[Hyp]NPISN
notes: TDIF, the 12-residue CLE peptide processed from CLE41 and CLE44 of A. thaliana; printed as HEV(Hyp)SG(Hyp)NPISN; numbers count on: the 12-residue peptide; CLE44 encodes the same peptide; also called wild type TDIF; wtTDIF; source: synthetic peptide (peptide 2.0)
Q: What does the source list for B1?
A: fold decrease in affinity against wild-type ecdTDR [1]: 31.4 fold; binding result [2]: binds; binding result [3]: binds
